Molecules are shown by their SMILES. ≈ marks a conversion by molar mass, not a printed value. Where two headings read alike, the source gives them in different places. Where a SMILES comes first, the peptide text is derived from it. The star is where a group is joined. Belotecan = CC[C@@]1(O)C(=O)OCc2c1cc1n(c2=O)Cc2c-1nc1ccccc1c2CCN(C(C)C)*; X8 = CC[C@@]1(O)C(=O)OCc2c1cc1n(c2=O)Cc2c-1nc1ccccc1c2CCN(C1CCCC1)*; Propanoyl(3-maleimido) = O=C1C=CC(=O)N1CCC(=O)*; PEG6 = NCCOCCOCCOCCOCCOCCOCCC(=O)O

The values below come from patent publication US20250235545A1, “POLYPEPTIDE CONJUGATE AND USE THEREOF” (SHANGHAI CHIXI BIOMEDICAL TECHNOLOGY CO., LTD, priority 2024, published 2025).

For data set [1], the system named is colo320 colorectal cancer tumor model. The method in brief: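 Female BALB/c nude mice, 6–8 weeks old, received 7.5×10^6 colo320 cells subcutaneously in the right chest. Once tumors reached at least 120 mm^3 they were randomized three per group. Treatment with test agents or saline control was given once weekly for four weeks.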
For data set [2], the system named is A2780 (ovarian cancer). Put plainly: cells. It is filed as cell-based. The settings on record: CCK8, 48 h; Table 1. The method, boiled down:
(§1)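 Cells seeded at 5,000 cells/well in RPMI1640 or DMEM high-glucose with 10% FBS and 1 mM sodium pyruvate, exposed to graded drug concentrations for 48 h at 37° C., 5% CO2; 0.1% DMSO controls. CCK8 added for ~2 h, absorbance 450 nm; survival rates and IC50 calculated.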

Data set [3] deals with SJSA-1 (sarcoma tissue). Put plainly: cells. It is filed as cell-based. The settings on record: CCK8, 48 h; Table 1. The method in brief: as §1
In data set [4] the test system is SKBR3 (breast cancer tissue). Put plainly: cells. In kind it is cell-based. The note with it: CCK8, 48 h; Table 1. The method in brief: as §1
Data set [5] deals with A549 (non-small cell lung cancer). Put plainly: cells. The settings on record: CCK8, 48 h; Table 1. In kind it is cell-based. The method in brief: as §1
Data set [6] is described as follows: Tumor homogenate activation efficiency, small cell lung cancer tissue (Example 28). In kind it is in vitro ADME. The settings on record: pH 5.0, 37° C., 2 h; Table 5. The method, then:
(§2) Buffer preparation: 50 mM PH buffer (MES), 250 mM NaCl, pH adjusted to 5.0 with 0.5 M of sodium hydroxide.
(§3) The polypeptide conjugate was prepared into a 1 mg/ml solution with pH 5.0 buffer, 100 μg of tumor tissue homogenate was added, (the tumor tissue homogenate was the homogenate of tumor tissues prepared with a Jingxin F6/10 handheld homogenizer), and the solution was placed at 37° C. for 2 h. The tumor tissue homogenate could effectively activate the polypeptide conjugate and release Belotecan, and the activation efficiencies of the drugs in tumor tissues were compared by high-performance liquid chromatography (HPLC) allowing determination of a decrease in the compounds and an increase in Belotecan:
(§4) Release percentage=peak area of Belotecan/total peak area of Belotecan and all other Belotecan-containing compounds

The nature of data set [7]: Tumor homogenate activation efficiency, ovarian cancer tissue (Examples 28, 37). In kind it is in vitro ADME. The note with it: pH 5.0, 37° C., 2 h; Table 5. As to the method:
as §2, §3, §4
(§5) The polypeptide conjugate was prepared into a 1 mg/ml solution with pH 5.0 buffer, 100 μg of tumor tissue homogenate was added, (the tumor tissue homogenate was the homogenate of tumor tissues prepared with a Jingxin F6/10 handheld homogenizer), and the solution was placed at 37° C. for 2 h. The tumor tissue homogenate could effectively activate the polypeptide conjugate and release Belotecan, and the activation efficiencies of the drugs in tumor tissues were compared by HPLC allowing determination of a decrease in the compounds and an increase in Belotecan: […]

The subject of data set [8] is sarcoma SJSA-1 tumor model. The settings on record: Table 2. The method, boiled down:
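SJSA-1 cells (2×10^7, DMEM/10% FBS, under 15 passages) implanted subcutaneously in right chest of female BALB/c nude mice, 6-8 weeks old. At ≥100 mm^3, randomized three per group; dosing once weekly for three weeks, saline as control, day 1 = first treatment.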

The nature of data set [9]: Tumor homogenate activation efficiency, non-small cell lung cancer tissue (Examples 28, 37). The note with it: pH 5.0, 37° C., 2 h; Table 5. It is filed as in vitro ADME. The method, then:
as §2, §3, §4, §5

Data set [10] can be described thus: Tumor homogenate activation efficiency, breast cancer tissue (Examples 28, 37). It is filed as in vitro ADME. The settings on record: pH 5.0, 37° C., 2 h; Table 5. As to the method: as §2, §3, §4, §5
Data set [11] in a line: Homogenate activation efficiency, heart tissue (Examples 28, 37). It is filed as in vitro ADME. The note with it: pH 5.0, 37° C., 2 h; Table 5.
A short description of data set [12]: Tumor homogenate activation efficiency, sarcoma tissue (Examples 28, 37). In kind it is in vitro ADME. The settings on record: pH 5.0, 37° C., 2 h; Table 5. The method, then:
as §2, §3, §4, §5

The nature of data set [13]: MTD determination in mice (Examples 27, 36, 44). It is filed as in vivo. The note with it: female, mouse, in vivo; mice, monitored for 14 d; Table 4. An excerpt: Test animals: 6-8 weeks old mice, all female; mice were grouped randomly, with six mice in each group, administered with drugs at different concentration gradients separately and monitored for 14 d. A mouse was euthanized at a loss of 20% of its initial weight and deemed to have died of poisoning.

Setting [14] is: 45 mg/kg once a week for four weeks, Table 3.
[15] abbreviates: 15 mg/kg once a week for three weeks.
Where [16] appears, read: 15 mg/kg once a week for four weeks, Table 3.
[17] abbreviates: Table 13 (Example 42), dose 45 mg/kg, once a week for four weeks, BALB/c mice.
[18] abbreviates: Table 14 (Example 43), dose 45 mg/kg, once a week for four weeks, BALB/c mice.
Where [19] appears, read: 45 mg/kg once a week for three weeks.

Turning to `CC[C@@]1(O)C(=O)OCc2c1cc1n(c2=O)Cc2c-1nc1ccccc1c2CCN(C(=O)CNC(=O)[C@H](CC(N)=O)NC(=O)[C@H](C)NC(=O)[C@H](C)NC(=O)CCOCCOCCOCCOCCOCCOCCNC(=O)CCN1C(=O)C=CC1=O)C1CCCC1` [MI-6PEG-AANG-D8] ({Propanoyl(3-maleimido)-PEG6}-AANG-X8), the entries for the “Mouse weight (%)” value in [1] (setting [14]) and in data set [8] (setting [15]) were “+21%” and “+35%”, respectively. Besides, in data set [2], the “IC50 A2780 (ovarian cancer)” value stood at 1.21 µg/mL (≈ 0.961 µM). Moreover, in data set [3], the “IC50 SJSA-1 (sarcoma tissue)” value was 0.87 µg/mL (≈ 0.691 µM). Moreover, in [4], the “IC50 SKBR3 (breast cancer tissue)” value worked out at 2.55 µg/mL (≈ 2.02 µM). The “IC50 A549 (non-small cell lung cancer)” value in [5] turned out to be 2.51 µg/mL (≈ 1.99 µM). In data set [6], the “Percentage of release efficiency (%) Small cell lung cancer tissue (NCI-H841)” value is given as 80.8%. Further, in data set [7], the “Percentage of release efficiency (%) Ovarian cancer tissue (A2780)” value (“Percentage … (%) Ovarian cancer tissue (A2780)” for short) was 70.1%. Also, the “Percentage of release efficiency (%) Non-small cell lung cancer tissue (A549)” value in [9] was found to be 85.1%. Also, the “Percentage of release efficiency (%) Breast cancer tissue (SKBR3)” value (shortened to “Percentage … (%) Breast cancer tissue (SKBR3)”) in [10] came out at 70.9%. Besides, in [11], the “Percentage of release efficiency (%) Heart tissue” value (shortened to “Percentage … (%) Heart tissue”) came out at 3%. Further, the “Percentage of release efficiency (%) Sarcoma tissue (SJSA1)” value (shortened to “Percentage … (%) Sarcoma tissue (SJSA1)”) in data set [12] was 71.1%. The compound further came in with an MTD at 14 d in [13] of 400 mg/kg.

`CC[C@@]1(O)C(=O)OCc2c1cc1n(c2=O)Cc2c-1nc1ccccc1c2CCN(C(=O)CNC(=O)[C@H](Cc1ccccc1)NC(=O)CNC(=O)CNC(=O)CCOCCOCCOCCOCCOCCOCCNC(=O)CCN1C(=O)C=CC1=O)C(C)C` [MI-6PEG-GGFG-Belotecan] ({Propanoyl(3-maleimido)-PEG6}-GGFG-Belotecan): the “Mouse weight (%)” value in [1] (setting [16]) was “+27%”; in data set [1] (setting [14]), “+34%”; in [1] (setting [17]), “+34%”; in data set [1] (setting [18]), “+34%”; in data set [8] (setting [15]), “+29%”; in [8] (setting [19]), “+31%”. Further, the “colo320 (colorectal cancer cell) growth rate (%)” value in data set [1] (setting [16]) worked out at 1057.73%; in data set [1] (setting [14]) it was 525.03%; in [1] (setting [17]), 525.03%; in data set [1] (setting [18]) it was 525.03%. Further, the “colo320 (colorectal cancer cell) mean tumor volume (mm^3)” value in data set [1] (setting [16]) was determined as 1171.5 mm^3; in data set [1] (setting [14]), 581.5 mm^3; in data set [1] (setting [17]), 581.5 mm^3; in data set [1] (setting [18]), 581.5 mm^3. In addition, the “IC50 A2780 (ovarian cancer)” value in [2] amounted to 2.60 µg/mL (≈ 2.1 µM). Also, in [3], the “IC50 SJSA-1 (sarcoma tissue)” value is 1.50 µg/mL (≈ 1.21 µM). For the same compound, in data set [4], the “IC50 SKBR3 (breast cancer tissue)” value was 6.15 µg/mL (≈ 4.97 µM). The “IC50 A549 (non-small cell lung cancer)” value in [5] turned out to be 3.61 µg/mL (≈ 2.92 µM). Moreover, in data set [6], the “Percentage of release efficiency (%) Small cell lung cancer tissue (NCI-H841)” value is 77.3%. Further, in [7], the “Percentage … (%) Ovarian cancer tissue (A2780)” value was 81.5%. For the same compound, the “SJSA-1 (sarcoma tissue) mean tumor volume (mm^3)” value in [8] (setting [15]) was determined as 1453.1 mm^3; in data set [8] (setting [19]), 979.5 mm^3. Moreover, the entries for the “SJSA-1 (sarcoma) Growth rate (%)” value in [8] (setting [15]) and in data set [8] (setting [19]) were 1257.35% and 844.40%, respectively. Also, the “Percentage of release efficiency (%) Non-small cell lung cancer tissue (A549)” value in data set [9] worked out at 72.7%. Moreover, in [10], the “Percentage … (%) Breast cancer tissue (SKBR3)” value was 67.7%. For the same compound, the “Percentage … (%) Heart tissue” value in [11] is recorded as 1.9%. Besides, the “Percentage … (%) Sarcoma tissue (SJSA1)” value in data set [12] was determined as 83.4%. This compound came in with an MTD at 14 d in data set [13] of 180 mg/kg.

Turning to `CC[C@@]1(O)C(=O)OCc2c1cc1n(c2=O)Cc2c-1nc1ccccc1c2CCN(C(=O)CNC(=O)[C@H](Cc1ccccc1)NC(=O)CNC(=O)CNC(=O)CCOCCOCCOCCOCCOCCOCCNC(=O)CCN1C(=O)C=CC1=O)C1CCCC1` [MI-6PEG-GGFG-D8] ({Propanoyl(3-maleimido)-PEG6}-GGFG-X8), the “Mouse weight (%)” value in data set [1] (setting [14]) is “+17%”; in [8] (setting [15]), “+19%”. In addition, the “IC50 A2780 (ovarian cancer)” value in data set [2] stood at 3.77 µg/mL (≈ 2.98 µM). Further, the “IC50 SJSA-1 (sarcoma tissue)” value in data set [3] was 2.35 µg/mL (≈ 1.86 µM). The “IC50 SKBR3 (breast cancer tissue)” value in data set [4] worked out at 11.26 µg/mL (≈ 8.91 µM). Besides, the “IC50 A549 (non-small cell lung cancer)” value in data set [5] was determined as 4.93 µg/mL (≈ 3.9 µM). Also, in data set [6], the “Percentage of release efficiency (%) Small cell lung cancer tissue (NCI-H841)” value was 66.7%. For the same compound, in [7], the “Percentage … (%) Ovarian cancer tissue (A2780)” value amounted to 76%. Also, the “Percentage of release efficiency (%) Non-small cell lung cancer tissue (A549)” value in data set [9] is listed as 77.5%. For the same compound, the “Percentage … (%) Breast cancer tissue (SKBR3)” value in data set [10] came to 81.2%. Moreover, the “Percentage … (%) Heart tissue” value in data set [11] turned out to be 3.1%. Moreover, the “Percentage … (%) Sarcoma tissue (SJSA1)” value in [12] is reported as 72.7%. This compound registered an MTD at 14 d in data set [13] of 250 mg/kg.
